The results in this text go back to the DeepSol protein solubility set.

A short description of the series: soluble on expression in E. coli; label from the status in PepcDB or PDB records.
Turning to “FMDELVSLTYRSRVRLADPVADIVQIMRASRVRNLRLGITGILLYNGVHFVQTIEGPRSACDELFRLISADPRHQEILAFDLEPITARRFPDWSMRIVSRKELRALAPDLERLDLSGPEDVAELHRTIAASLSRGDA”, the “soluble on expression in E. coli” value is reported as “soluble”.
“FNCNKREGPCSQRSLCECDPNLQLGRHSDQLWHYNLRTNRCERGGYRDNCNSHSSSGACVMACERIHHHHHH”: the “soluble on expression in E. coli” value is listed as “soluble”.
To “GAEVDQATKPAEAKYYIAGTITDATTGQELTTAKVTLGDKSVTSSFNEQVNYKAEGYALVVSADGYYPVKRQVYLNQVSDGQTSVATVNVALVSVEAAVIPPVVPPTDPETDINEGEATKVADKAVEVAKPSESTVTDMLAGTTATPEEKKALDETLEMAGGMKVGETTPEVLADGSILAITPVKFTNPIQDAPAMVPYFYNEGCELTGDVKEVAAPVTRADGAVAADIQKAFLSNAAKALNMNAGFVQKIGYTRISVLNGYSILGYTIKGQLVSKKLTFLISGKYYEGIVSYQKSVMIYPNYYSHDSHDSHDSHGFNPNAGGGSND” belongs “soluble”; to “GAHVSRVEKLPKDYQIVYKEIQKYLFKVGPVELNEGIGLLSEILGFFEEGAAAGKGVLDVTGTDVAAFCDALIGDSKTYADLYQESIQQHVDKAMKNMKD”, “soluble”; to “GAKNYYDITLALAGICQSARLVQQLAHQGHCDADALHVSLNSIIDMNPSSTLAVFGGSEANLRVGLETLLGVLNASSRQGLNAELTRYTLSLMVLERKLSSAKGALDTLGNRINGLQRQLEHFDLQSETLMSAMAAIYVDVISPLGPRIQVTGSPAVLQSPQVQAKVRATLLAGIRAAVLWHQVGGGRLQLMFSRNRLTTQAKQILAHLTPEL”, “soluble”.
The same measure for “GAMAATAAEAVASGSGEPREEAGALGPAWDESQLRSYSFPTRPIPRLSQSDPRAEELIENEEPVVLTDTNLVYPALKWDLEYLQENIGNGDFSVYSASTHKFLYYDEKKMANFQNFKPRSNREEMKFHEFVEKLQDIQQRGGEERLYLQQTLNDTVGRKIVMDFLGFNWNWINKQQGKRGWGQLTSNLLLIGMEGNVTPAHYDEQQNFFAQIKGYKRCILFPPDQFECLYPYPVHHPCDRQSQVDFDNPDYERFPNFQNVVGYETVVGPGDVLYIPMYWWHHIESLLNGGITITVNFWYKGAPTPKRIEYPLKAHQKVAIMRNIEKMLGEALGNPQEVGPLLNTMIKGRYN”: “soluble”.
The same measure for “GAMAPGGEMTFSIPTHKCGLVIGRGGENVKAINQQTGAFVEISRQLPPNGDPNFKLFIIRGSPQQIDHAKQLIEEKIEGPLCPVGPGPGGPGPAGPMGPFNPGPFNQ”: “soluble”; for “GAMDSSEMSTICDKTLNPSFCLKFLNTKFASPNLQALAKTTLDSTQARATQTLKKLQSIIDGGVDPRSKLAYRSCVDEYESAIGNLEEAFEHLASGDGMGMNMKVSAALDGADTCLDDVKRLRSVDSSVVNNSKTIKNLCGIALVISNMLPRN”: “soluble”.
Take “GAMGSMNGIDDLLNINDRIKQVQNERNELASKLQNLKQSLASNDTEVALSEVIAQDIIEVGASVEGLEQLRAKYGDLQILNKLEKVAVQQTQMQAGVDKLDSFERQLDELAEQPPDQFTLDDVKALHSKLTSVFATVPQINNIDSQYAAYNKLKSKVTGKYNDVIIQRLATNWSNTFDQKLLEAQWDTQKFASTSVGLVKCLRENSTKLYQLSLLYLPLEEETQNGDSERPLSRSNNNQEPVLWNFKSLANNFNVRFTYHFHATSSSSKIETYFQFLNDYLAENLYKCINIFHDDCNGLTKPVIHEQFINYVLQPIRDKVRSTLFQNDLKTLIVLISQILATDKNLLNSFHYHGLGLVSLISDEVWEKWINYEVEMANRQFINITKNPEDFPKSSQNFVKLINKIYDYLEPFYDLDFDLLVRYKLMTCSLIFMNLTSSYLDYILTVDSLNETRTKEQELYQTMAKLQHVNFVYRKIKSLSSNFIFIQLTDIVNSTESKKYNSLFQNVENDYEKAMSTDMQNSIVHRIQKLLKETLRNYFKISTWSTLEMSVDENIGPSSVPSAELVNSINVLRRLINKLDSMDIPLAISLKVKNELLNVIVNYFTESILKLNKFNQNGLNQFLHDFKSLSSILSLPSHATNYKCMSLHELVKILKLKYDPNNQQFLNPEYIKTGNFTSLKEAYSIKYLKDTKIQDALYRIIYGNIL”: the “soluble on expression in E. coli” value is given as “soluble”.
For the sequence “GAMGSPKEHIDLYQQIKWNGWGDTRKFLHQLKPSGTIAMTTPEVSSVPLPSLRGFIKKELTLPGEEDKPFVLDETPALQIENIHVDPPKQYPEFVRELKAFFLPDQLKDDKLARITHTFGKSLRDLIRVRIGQVKNAPDLIVLPHSHEEVERLVQLAHKYNVVIIPMGGGSNIVGAIEPVSNERFTVSIDMRRMNKVLWVDRREMTACIQVGIMGPELEKQLHKQGVSLGHDPDSFEFSTLGGWLATCSSGHQSDKYGDIEDMAVSFRTVTPTGTLELRNGARSGAGINYKHIILGSEGTLGIITEAVMKVHAVPQAVEYYGFLFPTFAHAVSALQQIRSSEVIPTMIRVYDPEETQLSFAWKPSKGAVSEFTSAMVKKYLHYIRSFDFKNVCLSIIGFEGPKKVVDFHRTSVFDILSKNAAFGLGSAPGKTWAEKRYDLPYIRDFLLDHNMWVDVAETTVSYANLQTLWKDAKQTFVKHFKDQGIPAWICAHISHTYTNGVCLYFIFASKQNENKDMAQYIEAKKLMTDIIFKYGGSLSHHHGVGYEHVPWMTRYATRGWINVYRSLKETIDPKDICNPRKLI”, the “soluble on expression in E. coli” value is “soluble”.
Turning to “GAMSEAFHTHSGIGVPLRRSNVDTDQIIPAVFLKRVTRTGFEDGLFAGWRSDPAFVLNLSPFDRGSVLVAGPDFGTGSSREHAVWALMDYGFRVVISSRFGDIFRGNAGKAGLLAAEVAQDDVELLWKLIEQSPGLEITANLQDRIITAATVVLPFKIDDHSAWRLLEGLDDIALTLRKLDEIEAFEGA”, the “soluble on expression in E. coli” value is given as “soluble”.
As to “GAMSGLADKVIWAVNAGGESHVDVHGIHYRKDPLEGRVGRASDYGMKLPILRSNPEDQVLYQTERYNEDSFGYDIPIKEEGEYVLVLKFAEVYFAQSQQKVFDVRVNGHTVVKDLDIFDRVGHSTAHDEIIPISIKKGKLSVQGEVSTFTGKLSVEFVKGYYDNPKVCALFIMKGTADDVPMLQPHPGLE”, the “soluble on expression in E. coli” value is recorded as “soluble”.
“GAMVETKCPNLDIVTSSGEFHCSGCVEHMPEFSYMYWLAKDMKSDEDTKFIEHLGDGINEDETVRTTDGGITTLRKVLHVTDTNKFAHYRFTCVLTTLDGVSKKNIWLK”: the “soluble on expression in E. coli” value was “soluble”.
To “GANRTLIVTTILEEPYVMYRKSDKPLYGNDRFEGYCLDLLKELSNILGFLYDVKLVPDGKYGAQNDKGEWNGMVKELIDHRADLAVAPLTITYVREKVIDFSKPFMTLGISILYRKGTPIDSADDLAKQTKIEYGAVRDGSTMTFFKKSKISTYEKMWAFMSSRQQSALVKNSDEGIQRVLTTDYALLMESTSIEYVTQRNCNLTQIGGLIDSKGYGVGTPIGSPYRDKITIAILQLQEEGKLHMMKEKWWRGNGCPE” belongs “soluble”.
For the sequence “GAVDLNKENRDPKYVESIVNRSQKIVDKLGLTDAKVAEDVCNVIANRYFELNDIYEIRDAKVKAVKESGLTGDAKNEALKAAENEKDAALYRSHFAFPASLSLFLNEEQIEAVKDGMTYGVVKVTYEATLDMIPSLKEEEKVQIYAWLVEAREFAMDAENSNKKHAAFGKYKGRINNYLAKRGYNLTKEREEWAKRVKARGGTL”, the “soluble on expression in E. coli” value is reported as “soluble”.
In the case of “GDQEPPLYVNENDIFTSPTRIEATLNGLYAAIKNTGTKSLMGGKSYLVFDNRGDDVINISNNLVTLFNTYNMNVGITDAENADTWTYAYLAINKVNTFLQSLEGAREVAGENYDRYVQEAKFVRALAYYYLNNLYPTPYSVNPDAKSVPLRLTAEAGTENNNMPRSTVKQIYEHILSDLENISALDTEVNTYTGVTHATQAAANMLKMRVYMAMNEWDKAITAGELVTGYSLPEDVTLIYKAPYFSQESIFSLPMADTNIPNTQQSLAEYYYDGKIMLIDTKSGIMSKPDYSLATDKRIIAFKGEKDLLMKFTDAKTKLQWVPIFRYAETLLDLAECYANKAGGEATAKSLLKQVRGRSVDAATDPLNIDNLSGDALKEAIYNEKRLEFIGEGIRGIDIMRRGEHFIKVGENETINVGPSDEKYTWPIPQVELLLNKDINK”, the “soluble on expression in E. coli” value was “soluble”.
With “GEERKCLQTHRVTVHGVPGPEPFTVFTINGGTKAKQLLQQILTNEQDIKPVTTDYFLMEEKYFISKEKNECRKQPFQRAIGPEEEIMQILSSWFPEEGYMGRIVLKTQQE”, the “soluble on expression in E. coli” value is given as “soluble”.
On to “GEGITLNQVAVGCECQDCLWAPTGGCCPGASLHKFAYNDQGQVRLRAGLPIYECNSRCRCGYDCPNRVVQKGIRYDLCIFRTDDGRGWGVRTLEKIRKNSFVMEYVGEIITSEEAERRGQIYDRQGATYLFDLDYVEDVYTVDAAYYGNISHFVNHSCDPNLQVYNVFIDNLDERLPRIAFFATRTIRAGEELTFDYNMQVDPVDMESTRMDSNFGLAGLPGSPKKRVRIECKCGTESCRKYLF”, for which the “soluble on expression in E. coli” value was “not soluble”.
In the case of “GEKVDFDDIQKKRQNKDLIELQALIDSHFEARRKEEEELVALKERIEKRRAERAE”, the “soluble on expression in E. coli” value is reported as “soluble”.
Take “GELMPPQLQNGLNLSAKVVQGSLDSLPQAVREFLENNAELCQPDHIHICDGSEEENGRLLGQMEEEGILRRLKKYDNCWLALTDPRDVARIESKTVIVTQEQRDTVPIPKTGLSQLGRWMSEEDFEKAFNARFPGCMKGRTMYVIPFSMGPLGSPLSKIGIELTDSPYVVASMRIMTRMGTPVLEALGDGEFVKCLHSVGCPLPLQKPLVNNWPCNPELTLIAHLPDRREIISFGSGYGGNSLLGKKCFALRMASRLAKEEGWLAEHMLVLGITNPEGEKKYLAAAFPSACGKTNLAMMNPSLPGWKVECVGDDIAWMKFDAQGHLRAINPENGFFGVAPGTSVKTNPNAIKTIQKNTIFTNVAETSDGGVYWEGIDEPLASGVTITSWKNKEWSSEDGEPCAHPNSRFCTPASQCPIIDAAWESPEGVPIEGIIFGGRRPAGVPLVYEALSWQHGVFVGAAMRSEATAAAEHKGKIIMHDPFAMRPFFGYNFGKYLAHWLSMAQHPAAKLPKIFHVNWFRKDKEGKFLWPGFGENSRVLEWMFNRIDGKASTKLTPIGYIPKEDALNLKGLGHINMMELFSISKEFWDKEVEDIEKYLVDQVNADLPCEIEREILALKQRISQM”: the “soluble on expression in E. coli” value was “soluble”.
Turning to “GEVASVPLTNYLDSQYFGKIYLGTPPQEFTVLFDTGSSDFWVPSIYCKSNACKNHQRFDPRKSSTFQNLGKPLSIHYGTGSMQGILGYDTVTVSNIVDIQQTVGLSTQEPGDVFTYAEFDGILGMAYPSLASEYSIPVFDNMMNRHLVAQDLFSVYMDRNGQESMLTLGAIDPSYYTGSLHWVPVTVQQYWQFTVDSVTISGVVVACEGGCQAILDTGTSKLVGPSSDILNIQQAIGATQNQYGEFDIDCDNLSYMPTVVFEINGKMYPLTPSAYTSQDQGFCTSGFQSENHSQKWILGDVFIREYYSVFDRANNLVGLAKAI”, the “soluble on expression in E. coli” value is given as “soluble”.
Regarding “GFKDYGHDYHPAPKTENIKGLGDLKPGIPKTPKQNGGGKRKRWTGDKGRKIYEWDSQHGELEGYRASDGQHLGSFDPKTGNQLKGPDPKRNIKKYL”, the “soluble on expression in E. coli” value is recorded as “soluble”.
With “GGDKQEAPITKNSIAGGQSESANSTMPGIVVPIISAETSHAAGNADPDVPDTAPLAIDTALESAWQPAKGDTLVLNFAQPYVISRVIVDSPTKDMTLEVRAGDTVVGTGTVTKSRTKITVTPAPAVTSLSIRVVGVPDGVSPEINDVKLVAKI”, the “soluble on expression in E. coli” value is on record as “not soluble”.
Regarding “GGEGTDAIQALIQAYFTAWNTNAPERFAEIFWPDGSWVNVVGMHWRGRDQIVFAHTAFLKTIFKDCKQELVTIEARTIAPGSALAVVTLIQDAYVTPDGRQMPRAHDRLTLLAVEREGVWRFIHGHNTIVNPDAANNDPVLRMKPA”, the “soluble on expression in E. coli” value is recorded as “soluble”.
